Laboratory results: the Human Domainome abundance scans (Beltran et al. 2025)

B1: CD2-associated protein, residues 271 to 331; numbered along this chain, Q9Y5K6 (parent)
chain: KEYCRTLFAYEGTNEDELTFKEGEIIHLISKETGEAGWWRGELNGKEGVFPDNFAVQINEL

Variants of: B1
Assay: abundance fitness (aPCA) (normalised: wild type 0, dead -1); higher = more abundant; growth selection in yeast, the domain comes from the species named
Settings: Homo sapiens

Abundance fitness, by site and new letter:
P51: H -0.866 | F -0.677 | G -0.893 | V -0.974 | K 0.152 | Q -0.137 | S -0.56 | I -0.49 | R -0.032 | W -0.533 | N -0.582 | M 0.004 | E -0.573 | L -0.377
N53: F -0.14 | L -0.133 | A -0.003 | H -0.032 | W -0.355 | I -0.193 | C -0.138 | Y -0.084 | V -0.185 | M -0.198 | Q -0.051 | S 0.012 | T 0.027 | D -0.094 | K 0.133 | R 0.038 | P -0.365 | E -0.036
E60: F -0.213 | I -0.475 | N -0.227 | H 0.13 | W -0.258 | T -0.11 | M -0.42 | D 0.172 | P -0.015 | A -0.05 | Q -0.115 | R -0.178 | G 0.013 | S -0.124 | K 0.03 | L -0.296 | V -0.291 | C -0.127
N59: D -0.145 | V -0.349 | L -0.501 | Y -0.332 | I -0.702 | T -0.147 | E -0.05 | Q -0.056 | G -0.037 | K -0.274 | M -0.426 | H -0.1 | S 0.009 | P -0.032 | W -0.367
A55: W -0.623 | K -0.92 | P -0.738 | M -0.886 | Y -0.919 | F -0.492 | S -0.505 | V 0.034 | E -0.726 | L -0.573 | D -0.671 | C -0.058 | R -1.07 | I -0.274 | H -1.01 | T -0.149 | G -0.322
F54: Q -0.347 | W -0.296 | S 0.099 | G -0.32 | I -0.191 | K 0.044 | H -0.018 | N -0.625 | R -0.004 | A 0.162 | P -0.572 | L 0.037 | V 0.011 | M -0.079 | C 0.084 | E -0.632 | T -0.088
I58: Y -0.249 | V 0.005 | P -0.431 | L -0.026 | N -0.378 | D 0 | R -0.417 | W -0.213 | T -0.136 | S -0.233 | C -0.112 | H -0.234 | F -0.126 | Q -0.247 | A -0.151
V56: M -0.073 | H -0.317 | R -0.161 | P -0.567 | K -0.05 | G -0.173 | Y -0.409 | E 0.003 | N -0.339 | L -0.264 | W -0.434 | C -0.314 | Q -0.226 | T 0.033 | I -0.327 | S -0.243 | F -0.456
Q57: R -0.155 | S -0.182 | Y -0.463 | I -0.006 | H -0.051 | W -0.532 | T -0.024 | N -0.077 | A -0.023 | E -0.016 | F -0.295 | D -0.097 | L -0.046 | C -0.139 | K -0.188 | V -0.058
D52: R -0.043 | E 0.043 | Y -0.085 | Q -0.02 | K -0.02 | S 0.039 | V -0.16 | P -0.081 | M 0.077 | I 0.077 | L -0.055 | N 0.008 | C 0.009 | A 0.053 | F -0.142 | W -0.186
L61: E 0.026 | P 0.215 | S 0.152 | M -0.003 | R -0.049 | I -0.29 | C 0.275 | K 0.033 | Y 0.064 | A 0.033 | H 0.009 | T 0.105 | W -0.116 | Q 0.113 | V 0.02
